The sequences below were run on Escherichia coli TOP10 (assay: shrunken log2 fold change of peptide-encoding DNA abundance (4.5 h post-induction vs induction); higher = less antimicrobial activity (less host growth inhibition)). Details: time post-induction: 4.5 h; library: site-saturation at positions 5, 18, 19, 20.
With RRIRIRPPRLPRPRPRPDFPPRP the “shrunken log2 fold change” value was 0.058. RRIRTRPPRLPRPRPRPEAYPRP was tested, and the “shrunken log2 fold change” value was -0.12. With RRIRGRPPRLPRPRPRPDDPPRP the “shrunken log2 fold change” value was 0.0369. With RRIRPRPPRLPRPRPRPFTWPRP the “shrunken log2 fold change” value was -0.236. For RRIRLRPPRLPRPRPRPGRIPRP, the “shrunken log2 fold change” value was -0.136. In the case of RRIRNRPPRLPRPRPRPGLHPRP, the “shrunken log2 fold change” value is reported as -0.0523. With RRIRMRPPRLPRPRPRPQRYPRP the “shrunken log2 fold change” value was -0.00185. With RRIRARPPRLPRPRPRPNFAPRP the “shrunken log2 fold change” value was 0.467. RRIRMRPPRLPRPRPRPRQLPRP was tested, and the “shrunken log2 fold change” value was 0.691. In the case of RRIRKRPPRLPRPRPRPQFTPRP, the “shrunken log2 fold change” value is reported as -0.0285. RRIRSRPPRLPRPRPRPFLYPRP was tested, and the “shrunken log2 fold change” value was -0.442. For RRIRHRPPRLPRPRPRPIFPPRP, the “shrunken log2 fold change” value was 0.033. With RRIRQRPPRLPRPRPRPFYQPRP the “shrunken log2 fold change” value was -0.104. In the case of RRIRMRPPRLPRPRPRPVNHPRP, the “shrunken log2 fold change” value is reported as -0.327. RRIRLRPPRLPRPRPRPSVTPRP was tested, and the “shrunken log2 fold change” value was -0.267. With RRIRTRPPRLPRPRPRPSFVPRP the “shrunken log2 fold change” value was -0.488. RRIRARPPRLPRPRPRPFKPPRP was tested, and the “shrunken log2 fold change” value was -0.0739. In the case of RRIRARPPRLPRPRPRPGKTPRP, the “shrunken log2 fold change” value is reported as 0.312. For RRIRERPPRLPRPRPRPHAAPRP, the “shrunken log2 fold change” value was -0.0217. In the case of RRIRDRPPRLPRPRPRPQCQPRP, the “shrunken log2 fold change” value is reported as -0.00822. In the case of RRIRCRPPRLPRPRPRPRYQPRP, the “shrunken log2 fold change” value is reported as -0.319. RRIRGRPPRLPRPRPRPDWGPRP was tested, and the “shrunken log2 fold change” value was 0.242. In the case of RRIRRRPPRLPRPRPRPEEYPRP, the “shrunken log2 fold change” value is reported as -0.173. With RRIRMRPPRLPRPRPRPYGRPRP the “shrunken log2 fold change” value was 0.0596. RRIRKRPPRLPRPRPRPYPTPRP was tested, and the “shrunken log2 fold change” value was -0.0559. For RRIRWRPPRLPRPRPRPQWIPRP, the “shrunken log2 fold change” value was 0.0797. In the case of RRIRPRPPRLPRPRPRPMSRPRP, the “shrunken log2 fold change” value is reported as -0.0311. With RRIRCRPPRLPRPRPRPMVHPRP the “shrunken log2 fold change” value was -0.452. For RRIRLRPPRLPRPRPRPYDPPRP, the “shrunken log2 fold change” value was -0.109. RRIRQRPPRLPRPRPRPSFNPRP was tested, and the “shrunken log2 fold change” value was -0.48. For RRIRWRPPRLPRPRPRPEYFPRP, the “shrunken log2 fold change” value was -0.0445. With RRIRERPPRLPRPRPRPILLPRP the “shrunken log2 fold change” value was -0.336. With RRIRKRPPRLPRPRPRPPAWPRP the “shrunken log2 fold change” value was 0.602. In the case of RRIRFRPPRLPRPRPRPGWMPRP, the “shrunken log2 fold change” value is reported as -0.0518. For RRIRHRPPRLPRPRPRPAGTPRP, the “shrunken log2 fold change” value was -0.04. For RRIRPRPPRLPRPRPRPDQPPRP, the “shrunken log2 fold change” value was -0.0572. With RRIRCRPPRLPRPRPRPQYHPRP the “shrunken log2 fold change” value was -0.425. In the case of RRIRQRPPRLPRPRPRPAVLPRP, the “shrunken log2 fold change” value is reported as 0.0386. RRIRVRPPRLPRPRPRPGEGPRP was tested, and the “shrunken log2 fold change” value was 0.62. RRIRNRPPRLPRPRPRPFADPRP was tested, and the “shrunken log2 fold change” value was 0.0675. For RRIRMRPPRLPRPRPRPDDNPRP, the “shrunken log2 fold change” value was 2.27. RRIRLRPPRLPRPRPRPEPMPRP was tested, and the “shrunken log2 fold change” value was -0.0888. With RRIRHRPPRLPRPRPRPCQHPRP the “shrunken log2 fold change” value was -0.214. With RRIRFRPPRLPRPRPRPHWVPRP the “shrunken log2 fold change” value was -0.523. With RRIRDRPPRLPRPRPRPYGYPRP the “shrunken log2 fold change” value was -0.575. For RRIRQRPPRLPRPRPRPEPSPRP, the “shrunken log2 fold change” value was 0.102. For RRIRKRPPRLPRPRPRPKGRPRP, the “shrunken log2 fold change” value was 0.262. For RRIRHRPPRLPRPRPRPTSFPRP, the “shrunken log2 fold change” value was 0.0399. RRIRLRPPRLPRPRPRPTELPRP was tested, and the “shrunken log2 fold change” value was -0.118. RRIRFRPPRLPRPRPRPIMFPRP was tested, and the “shrunken log2 fold change” value was -0.0164. RRIRWRPPRLPRPRPRPADLPRP was tested, and the “shrunken log2 fold change” value was 0.331. For RRIRFRPPRLPRPRPRPEVVPRP, the “shrunken log2 fold change” value was 0.723. In the case of RRIRNRPPRLPRPRPRPVSPPRP, the “shrunken log2 fold change” value is reported as -0.087. With RRIRDRPPRLPRPRPRPDFWPRP the “shrunken log2 fold change” value was 0.596. RRIRVRPPRLPRPRPRPNWHPRP was tested, and the “shrunken log2 fold change” value was -0.0428. With RRIRYRPPRLPRPRPRPDCQPRP the “shrunken log2 fold change” value was -0.0127. For RRIRVRPPRLPRPRPRPILCPRP, the “shrunken log2 fold change” value was 0.0143. RRIRVRPPRLPRPRPRPVVPPRP was tested, and the “shrunken log2 fold change” value was 0.132. For RRIRCRPPRLPRPRPRPQINPRP, the “shrunken log2 fold change” value was -0.685. In the case of RRIRDRPPRLPRPRPRPMEMPRP, the “shrunken log2 fold change” value is reported as 0.0165. RRIRNRPPRLPRPRPRPNAPPRP was tested, and the “shrunken log2 fold change” value was -0.194. With RRIRMRPPRLPRPRPRPTEWPRP the “shrunken log2 fold change” value was 0.555. In the case of RRIRHRPPRLPRPRPRPTYNPRP, the “shrunken log2 fold change” value is reported as -0.758. For RRIRTRPPRLPRPRPRPAWEPRP, the “shrunken log2 fold change” value was 0.174. In the case of RRIRMRPPRLPRPRPRPNTPPRP, the “shrunken log2 fold change” value is reported as 0.188. RRIRMRPPRLPRPRPRPTLHPRP was tested, and the “shrunken log2 fold change” value was 0.294. RRIRGRPPRLPRPRPRPCTKPRP was tested, and the “shrunken log2 fold change” value was 0.235. In the case of RRIRPRPPRLPRPRPRPDKNPRP, the “shrunken log2 fold change” value is reported as -0.308. With RRIRWRPPRLPRPRPRPQGIPRP the “shrunken log2 fold change” value was 0.102. In the case of RRIRPRPPRLPRPRPRPQVNPRP, the “shrunken log2 fold change” value is reported as -0.279. RRIRGRPPRLPRPRPRPKYAPRP was tested, and the “shrunken log2 fold change” value was 0.501. In the case of RRIRNRPPRLPRPRPRPLMQPRP, the “shrunken log2 fold change” value is reported as -0.0301. With RRIRSRPPRLPRPRPRPYTKPRP the “shrunken log2 fold change” value was -0.202. With RRIRMRPPRLPRPRPRPRKFPRP the “shrunken log2 fold change” value was 0.247. In the case of RRIRFRPPRLPRPRPRPPYGPRP, the “shrunken log2 fold change” value is reported as -0.0784. In the case of RRIRIRPPRLPRPRPRPKVPPRP, the “shrunken log2 fold change” value is reported as 0.167. RRIRRRPPRLPRPRPRPQGSPRP was tested, and the “shrunken log2 fold change” value was 0.0234. With RRIRQRPPRLPRPRPRPRFGPRP the “shrunken log2 fold change” value was 0.198. In the case of RRIRLRPPRLPRPRPRPRNSPRP, the “shrunken log2 fold change” value is reported as -0.051. In the case of RRIRMRPPRLPRPRPRPVHVPRP, the “shrunken log2 fold change” value is reported as -0.0337. With RRIRERPPRLPRPRPRPKPAPRP the “shrunken log2 fold change” value was 0.666. With RRIRPRPPRLPRPRPRPGTKPRP the “shrunken log2 fold change” value was 0.453. In the case of RRIRQRPPRLPRPRPRPIQMPRP, the “shrunken log2 fold change” value is reported as -0.0176. For RRIRPRPPRLPRPRPRPFEHPRP, the “shrunken log2 fold change” value was 0.0626. RRIRGRPPRLPRPRPRPNWGPRP was tested, and the “shrunken log2 fold change” value was 0.44. For RRIRERPPRLPRPRPRPIISPRP, the “shrunken log2 fold change” value was -0.209. With RRIRARPPRLPRPRPRPLCIPRP the “shrunken log2 fold change” value was -0.143. In the case of RRIRQRPPRLPRPRPRPVEGPRP, the “shrunken log2 fold change” value is reported as 0.294. RRIRFRPPRLPRPRPRPQNEPRP was tested, and the “shrunken log2 fold change” value was -0.603. In the case of RRIRYRPPRLPRPRPRPNLMPRP, the “shrunken log2 fold change” value is reported as -0.617. With RRIRDRPPRLPRPRPRPKAEPRP the “shrunken log2 fold change” value was -0.0211. In the case of RRIRMRPPRLPRPRPRPWGLPRP, the “shrunken log2 fold change” value is reported as 0.0219. For RRIRFRPPRLPRPRPRPQHAPRP, the “shrunken log2 fold change” value was -0.202. With RRIRHRPPRLPRPRPRPGFQPRP the “shrunken log2 fold change” value was -0.0167. For RRIRHRPPRLPRPRPRPKITPRP, the “shrunken log2 fold change” value was -0.913. RRIRERPPRLPRPRPRPAHPPRP was tested, and the “shrunken log2 fold change” value was -0.0581. For RRIRLRPPRLPRPRPRPKPHPRP, the “shrunken log2 fold change” value was 0.207. With RRIRSRPPRLPRPRPRPGGAPRP the “shrunken log2 fold change” value was 0.574. For RRIRRRPPRLPRPRPRPFVDPRP, the “shrunken log2 fold change” value was 0.243. For RRIRFRPPRLPRPRPRPIMVPRP, the “shrunken log2 fold change” value was -0.104. With RRIRRRPPRLPRPRPRPWDEPRP the “shrunken log2 fold change” value was 0.0108. RRIRSRPPRLPRPRPRPHMDPRP was tested, and the “shrunken log2 fold change” value was -0.427. For RRIRCRPPRLPRPRPRPVDDPRP, the “shrunken log2 fold change” value was 0.157. In the case of RRIRERPPRLPRPRPRPHLSPRP, the “shrunken log2 fold change” value is reported as -0.19. In the case of RRIRPRPPRLPRPRPRPSKFPRP, the “shrunken log2 fold change” value is reported as -0.494. RRIRNRPPRLPRPRPRPSRSPRP was tested, and the “shrunken log2 fold change” value was -0.076. With RRIRSRPPRLPRPRPRPAKIPRP the “shrunken log2 fold change” value was -0.0773. With RRIRSRPPRLPRPRPRPYHFPRP the “shrunken log2 fold change” value was -1.8. In the case of RRIRLRPPRLPRPRPRPFHNPRP, the “shrunken log2 fold change” value is reported as -0.336. With RRIRLRPPRLPRPRPRPKYKPRP the “shrunken log2 fold change” value was -0.486. RRIRYRPPRLPRPRPRPRLMPRP was tested, and the “shrunken log2 fold change” value was -0.0571. With RRIRDRPPRLPRPRPRPEFRPRP the “shrunken log2 fold change” value was 0.283. For RRIRVRPPRLPRPRPRPFMNPRP, the “shrunken log2 fold change” value was -0.836. RRIRKRPPRLPRPRPRPPNEPRP was tested, and the “shrunken log2 fold change” value was 1.68. RRIRTRPPRLPRPRPRPLNMPRP was tested, and the “shrunken log2 fold change” value was 0.00244. For RRIRIRPPRLPRPRPRPWCSPRP, the “shrunken log2 fold change” value was -0.412. With RRIRERPPRLPRPRPRPTGTPRP the “shrunken log2 fold change” value was -0.0482. RRIRRRPPRLPRPRPRPMSKPRP was tested, and the “shrunken log2 fold change” value was 0.404. RRIRKRPPRLPRPRPRPYQIPRP was tested, and the “shrunken log2 fold change” value was -0.000276. RRIRPRPPRLPRPRPRPMKYPRP was tested, and the “shrunken log2 fold change” value was -0.157. For RRIRLRPPRLPRPRPRPWYPPRP, the “shrunken log2 fold change” value was -0.242. With RRIRFRPPRLPRPRPRPLMMPRP the “shrunken log2 fold change” value was -0.347. With RRIRSRPPRLPRPRPRPLVPPRP the “shrunken log2 fold change” value was -0.0319. With RRIRARPPRLPRPRPRPIQNPRP the “shrunken log2 fold change” value was 0.376. RRIRERPPRLPRPRPRPNRNPRP was tested, and the “shrunken log2 fold change” value was -1.09.

— the supplement of paper PMC9112550, “Optimization of the antimicrobial peptide Bac7 by deep mutational scanning” (BMC Biology, 2022)
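Further: peptides expressed intracellularly from a pBAD plasmid library in pooled LB shake-flask culture, induced with 0.3% L-arabinose, DNA abundance read by NGS, three biological replicates, DESeq2 with apeglm shrinkage.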
